The text below walks through data of US20230348600A1 (INHIBRX, published 2023).

Assay [1] addresses T1, human CD28 (full-length, cell surface) (human, UniProt P10747 19-220).
T1 construct: On HEK293FS cells transiently transfected with full-length human CD28, or endogenous on Jurkat cells and primary human T cells; also called hCD28; cluster of differentiation 28
The assay can be described thus: flow cytometry, titration on Jurkat cells (endogenous CD28).

For assay [2], the target named is T1, human CD28 (full-length, cell surface). The assay can be described thus: flow cytometry on Jurkat cells and primary T cells enriched from PBMCs (endogenous CD28).
The target is the same in assay [3]. The assay can be described thus: flow cytometry, titration of sdAb-hFc on HEK293FS cells transiently transfected with full-length human CD28; Alexa Fluor 647 anti-human IgG.
Procedure: HEK293FS transiently transfected with full-length human CD28 or cynomolgus CD28 were used as CD28-positive cells. Untransfected HEK293FS cells were used as CD28-negative cells. Cells were seeded in 96-well round-bottom plates at 3×10³ cells/well in FACS buffer. The exemplary generated sdAb-hFcs were titrated onto cells and assay plates were incubated for 30 minutes at 4° C. […] Assay plates were incubated for 30 minutes at 4° C. and then cells were washed two times with FACS buffer and resuspended in FACS buffer for analysis using an Intellicyt iQue®.
Assay [4] has the same target. The assay is described as follows: flow cytometry, titration on Jurkat cells (5T4-/PDL1-/CD28+). A general note: In flow cytometry, cells or beads pass a laser one at a time.

B1: cx984 (CD28 monospecific construct) (Fc fusion)
chain: EVQLVQSGGGLVQTGGSLRLSCAASGRMFSNYAMGWFRQAPGKEREFVAAINYRRDSADYADSVKGRFTISRDNAKNTVYLEMNSLKPEDTAIYYCGFTYAGWASSRRDDYNYWGQGTQVTVKPPAPGGPSVFLFPPKPKDTLMISRTPEVTCVVVDVSHEDPEVKFNWYVDGVEVHNAKTKPREEQYNSTYRVVSVLTVLHQDWLNGKEYKCKVSNKALPAPIEKTISKAKGQPREPQVYTLPPSRDELTKNQVSLTCLVKGFYPSDIAVEWESNGQPENNYKTTPPVLDSDGSFFLYSKLTVDKSRWQQGNVFSCSVMHEALHNHYTQKSLSLSPGK
notes: Homodimer of two identical chains; also called monospecific, bivalent CD28 sdAb cx984
For the molecule B1, the binding result in assay [1] is on record as “binds”.

B2: 1C9-xELL (1C9 CD28 sdAb formatted with variant human IgG1 Fc xELL) (Fc fusion)
chain: B1 chain
notes: also called 1C9 sdAb-xELL
Regarding B2, the binding result in assay [2] was “binds”.

B3: 1G7 CD28 sdAb formatted with human IgG1 Fc (sdAb-hFc) (Fc fusion)
chain: EVQLVQSGGALVQAGGSLRLSCVAPRTIGLISLMGWYRQAPGKQRELVATIIASGRTNYAESVKDRFTISRDNAENKVYLQVNSLKPEDTAVYYCRVNAETAPWSRRGFWGQGTQVTVKPPAPELLGGPSVFLFPPKPKDTLMISRTPEVTCVVVDVSHEDPEVKFNWYVDGVEVHNAKTKPREEQYNSTYRVVSVLTVLHQDWLNGKEYKCKVSNKALPAPIEKTISKAKGQPREPQVYTLPPSRDELTKNQVSLTCLVKGFYPSDIAVEWESNGQPENNYKTTPPVLDSDGSFFLYSKLTVDKSRWQQGNVFSCSVMHEALHNHYTQKSLSLSPGK
notes: also called 1G7 sdAb-IgG1
Regarding B3, the binding result in assay [3] was “binds”.

B4: 1C9 CD28 sdAb formatted with human IgG1 Fc (sdAb-hFc) (Fc fusion)
chain: EVQLVQSGGGLVQTGGSLRLSCAASGRMFSNYAMGWFRQAPGKEREFVAAINYRRDSADYADSVKGRFTISRDNAKNTVYLEMNSLKPEDTAIYYCGFTYAGWASSRRDDYNYWGQGTQVTVKPPAPELLGGPSVFLFPPKPKDTLMISRTPEVTCVVVDVSHEDPEVKFNWYVDGVEVHNAKTKPREEQYNSTYRVVSVLTVLHQDWLNGKEYKCKVSNKALPAPIEKTISKAKGQPREPQVYTLPPSRDELTKNQVSLTCLVKGFYPSDIAVEWESNGQPENNYKTTPPVLDSDGSFFLYSKLTVDKSRWQQGNVFSCSVMHEALHNHYTQKSLSLSPGK
notes: Bivalent sdAb-IgG1 homodimer; also called 1C9-IgG1; 1C9 sdAb-IgG1
Consider B4, for which the binding result in assay [3] is “binds”.

B5: cx694 (PDL1xCD28 bispecific construct) (bispecific antibody)
chain: EVQLLESGGGEVQPGGSLRLSCAASGGIFAIKPISWYRQAPGKQREWVSTTTSSGATNYAESVKGRFTISRDNAKNTLYLQMSSLRAEDTAVYYCNVFEYWGQGTLVTVKPGGSGGGGSEVQLVQSGGGLVQTGGSLRLSCAASGRMFSNYAMGWFRQAPGKEREFVAAINYRRDSADYADSVKGRFTISRDNAKNTVYLEMNSLKPEDTAIYYCGFTYAGWASSRRDDYNYWGQGTQVTVKPPAPGGPSVFLFPPKPKDTLMISRTPEVTCVVVDVSHEDPEVKFNWYVDGVEVHNAKTKPREEQYNSTYRVVSVLTVLHQDWLNGKEYKCKVSNKALPAPIEKTISKAKGQPREPQVYTLPPSRDELTKNQVSLTCLVKGFYPSDIAVEWESNGQPENNYKTTPPVLDSDGSFFLYSKLTVDKSRWQQGNVFSCSVMHEALHNHYTQKSLSLSPGK
notes: also called PDL1xCD28 bispecific protein
Consider B5, for which the binding result in assay [4] is on record as “no binding”.

B6: 2F11 CD28 sdAb formatted with human IgG1 Fc (sdAb-hFc) (Fc fusion)
chain: QVQLQQSGGGLVQAGGSLRLSCVASGISFNVVDMDWHRQAPGKERELVAGITRGGATYYADSVKGRFTISRDNAKNSAYLQLANLKPEDTAVYYCNARWPSRYQNYWGQGTQVTVKPPAPELLGGPSVFLFPPKPKDTLMISRTPEVTCVVVDVSHEDPEVKFNWYVDGVEVHNAKTKPREEQYNSTYRVVSVLTVLHQDWLNGKEYKCKVSNKALPAPIEKTISKAKGQPREPQVYTLPPSRDELTKNQVSLTCLVKGFYPSDIAVEWESNGQPENNYKTTPPVLDSDGSFFLYSKLTVDKSRWQQGNVFSCSVMHEALHNHYTQKSLSLSPGK
notes: Bivalent sdAb-IgG1 homodimer; I treated them as the same clone; also called 2F11 sdAb-IgG1
B6: the binding result in assay [3] is given as “binds”.

B7: cx8370 (PDL1xCD28 bispecific construct) (bispecific antibody)
chain: EVQLLESGGGEVQPGGSLRLSCAASGGIFAIKPISWYRQAPGKQREWVSTTTSSGATNYAESVKGRFTISRDNAKNTLYLQMSSLRAEDTAVYYCNVFEYWGQGTLVTVKPGGSGGSEVQLVQSGGGLVQTGGSLRLSCAASGRMFSNYAMGWFRQAPGKEREFVAAINYRRDSADYADSVKGRFTISRDNAKNTVYLEMNSLKPEDTAIYYCGFTYAGWASSRRDDYNYWGQGTQVTVKPPAPGGPSVFLFPPKPKDTLMISRTPEVTCVVVDVSHEDPEVKFNWYVDGVEVHNAKTKPREEQYNSTYRVVSVLTVLHQDWLNGKEYKCKVSNKALPAPIEKTISKAKGQPREPQVYTLPPSRDELTKNQVSLTCLVKGFYPSDIAVEWESNGQPENNYKTTPPVLDSDGSFFLYSKLTVDKSRWQQGNVFSCSVMHEALHNHYTQKSLSLSPGK
B7: the binding result in assay [4] was “no binding”.
